{"source": "patent US20100226910", "molecular_target": "Synthetic human amyloid protein Aβ1-42 or Aβ1-40 (UniProt P05067)", "sequence (P05067 whole entry, looked up, tested part not stated)": "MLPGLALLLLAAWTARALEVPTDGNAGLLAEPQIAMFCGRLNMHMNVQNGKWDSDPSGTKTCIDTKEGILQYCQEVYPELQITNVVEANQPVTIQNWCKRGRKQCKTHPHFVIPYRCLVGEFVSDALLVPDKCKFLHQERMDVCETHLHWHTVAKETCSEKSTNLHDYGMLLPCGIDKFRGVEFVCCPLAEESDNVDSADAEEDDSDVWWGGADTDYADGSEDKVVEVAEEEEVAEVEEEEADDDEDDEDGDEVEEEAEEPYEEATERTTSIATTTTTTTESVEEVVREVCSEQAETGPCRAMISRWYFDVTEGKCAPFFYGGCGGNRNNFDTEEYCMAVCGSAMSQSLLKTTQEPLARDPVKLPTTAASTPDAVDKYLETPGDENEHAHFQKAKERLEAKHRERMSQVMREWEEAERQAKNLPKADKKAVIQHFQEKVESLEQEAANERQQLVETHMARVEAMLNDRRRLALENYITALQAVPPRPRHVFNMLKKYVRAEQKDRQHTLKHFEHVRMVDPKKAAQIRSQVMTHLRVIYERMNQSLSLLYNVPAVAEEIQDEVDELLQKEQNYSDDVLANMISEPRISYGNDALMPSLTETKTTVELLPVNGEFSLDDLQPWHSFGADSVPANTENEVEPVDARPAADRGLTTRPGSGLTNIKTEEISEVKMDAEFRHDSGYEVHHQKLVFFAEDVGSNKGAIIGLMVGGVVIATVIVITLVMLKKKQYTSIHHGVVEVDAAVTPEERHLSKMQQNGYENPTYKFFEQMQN"}
{"substance": "KLK1 (Sigma)", "values": [{"measurement": "cleavage of amyloid fibrils in vitro, mass spectra after digestion", "value": "KLK1 cleaves amyloid fibrils (FIG. 1); in panel C, there is a clear peak at about 2423 M/Z (mass to charge ration), which is an indication of cleavage"}, {"measurement": "cleavage of soluble amyloid in vitro, mass spectra after digestion", "value": "In panel B, there are no visible peaks when KLK1 was added to soluble amyloid. This indicates that KLK1 cleaved the soluble amyloid into smaller fragments"}]}
